In US20130209489A1 (Amgen, published 2013):

B1: anti-myostatin antibody 12A5-1 (antibody, V domains shown)
VH: EVQLVESGGGLVQPGGSLRLSCAASGFTFSNYWMNWVRQAPGKGLEWVAQIRLKSDNYATHYAESVKGRFTISRDNAKNSLYLQMNSLRAEDTAVYYCARGLDYWGQGTTVTVSS
VL: DIQMTQSPSSLSASVGDRVTITCKASQDINKYVAWYQQKPGKAPKLLIYYTSTLQPGVPSRFSGSGSGTDFTFTISSLQPEDIATYYCLQYDNLLYTFGQGTKLEIK
B2: anti-myostatin antibody 12A5-10 (antibody, V domains shown)
VH: EVQLVESGGGLVQPGGSLRLSCAASGFTFRNYWCNWVRQAPGKGLEWVAQIRLKSDNYATHYAESVKGRFTISRDNAKNSLYLQMNSLRAEDTAVYYCTEGLDYWGQGTTVTVSS
VL: DIQMTQSPSSLSASVGDRVTITCKASQDINKYVAWYQQKPGKAPKLLIYYTSTLQPGVPSRFSGSGSGTDFTFTISSLQPEDIATYYCLQYDNKLYTFGQGTKLEIK
B3: anti-myostatin antibody 12A5-18 (antibody, V domains shown)
VH: EVQLVESGGGLVQPGGSLRLSCAASGFTFRNYWCNWVRQAPGKGLEWVAQIRLKSDNYATHYAESVKGRFTISRDNAKNSLYLQMNSLRAEDTAVYYCTEGLDYWGQGTTVTVSS
VL: DIQMTQSPSSLSASVGDRVTITCKASQDINKYVAWYQQKPGKAPKLLIYYTSHLQPGVPSRFSGSGSGTDFTFTISSLQPEDIATYYCLQYDNLLYTFGQGTKLEIK
B4: anti-myostatin antibody 12A5-8 (antibody, V domains shown)
VH: EVQLVESGGGLVQPGGSLRLSCAASGFTFRNYWCNWVRQAPGKGLEWVAQIRLKSDNYATHYAESVKGRFTISRDNAKNSLYLQMNSLRAEDTAVYYCTEGLDYWGQGTTVTVSS
VL: DIQMTQSPSSLSASVGDRVTITCKASQDINKYVAWYQQKPGKAPKLLIYYTKTLQPGVPSRFSGSGSGTDFTFTISSLQPEDIATYYCLQYDNLLYTFGQGTKLEIK
B5: anti-myostatin antibody 12A5-12 (antibody, V domains shown)
VH: EVQLVESGGGLVQPGGSLRLSCAASGFTFSNYWLNWVRQAPGKGLEWVAQIRLKSDNYATHYAESVKGRFTISRDNAKNSLYLQMNSLRAEDTAVYYCTEGLDYWGQGTTVTVSS
VL: DIQMTQSPSSLSASVGDRVTITCKASQDINKYVAWYQQKPGKAPKLLIYYTSWLQPGVPSRFSGSGSGTDFTFTISSLQPEDIATYYCLQYDNLLYTFGQGTKLEIK
B6: anti-myostatin antibody 12A5-9 (antibody, V domains shown)
VH: EVQLVESGGGLVQPGGSLRLSCAASGFTFRNYWCNWVRQAPGKGLEWVAQIRLKSDNYATHYAESVKGRFTISRDNAKNSLYLQMNSLRAEDTAVYYCTEGLDYWGQGTTVTVSS
VL: DIQMTQSPSSLSASVGDRVTITCKASQDINKYVAWYQQKPGKAPKLLIYYTRTLQPGVPSRFSGSGSGTDFTFTISSLQPEDIATYYCLQYDNLLYTFGQGTKLEIK
B7: anti-myostatin antibody 12A5-3 (antibody, V domains shown)
VH: EVQLVESGGGLVQPGGSLRLSCAASGFTFSNYWCNWVRQAPGKGLEWVAQIRLKSDNYATHYAESVKGRFTISRDNAKNSLYLQMNSLRAEDTAVYYCTEGLDYWGQGTTVTVSS
VL: DIQMTQSPSSLSASVGDRVTITCKASQDINKYVAWYQQKPGKAPKLLIYYTSFLQPGVPSRFSGSGSGTDFTFTISSLQPEDIATYYCLQYDNLLYTFGQGTKLEIK
B8: anti-myostatin antibody 12A5-6 (antibody, V domains shown)
VH: EVQLVESGGGLVQPGGSLRLSCAASGFTFSRYWMNWVRQAPGKGLEWVAQIRLKSDNYATHYAESVKGRFTISRDNAKNSLYLQMNSLRAEDTAVYYCTEGLDYWGQGTTVTVSS
VL: DIQMTQSPSSLSASVGDRVTITCKASQDINKYVAWYQQKPGKAPKLLIYYTSFLQPGVPSRFSGSGSGTDFTFTISSLQPEDIATYYCLQYDALLYTFGQGTKLEIK

What follows are binders tested against mature human myostatin (human, UniProt O14793 267-375) (assay: cell-based or functional assay).

In order of rising “IC50 (nM), C2C12/pMARE luciferase reporter cell myostatin activity assay” value:
1. B3  1.45 nM
2. B5  1.45 nM
3. B8  1.64 nM
4. B7  2.53 nM
5. B2  3.08 nM
6. B6  3.98 nM
7. B4  4.96 nM
8. B1  473 nM
